Assay results reported in publication PMC10786891, “Massively parallel profiling of RNA-targeting CRISPR-Cas13d”.
Where a chain is given by its changes, count along the chain named. In names and notes the source's numbering stands.

T1: EsCas13d, nuclease-dead (Eubacterium siraeum, UniProt B0MS50, R295A;H300A;R849A;H854A)
T1 sequence: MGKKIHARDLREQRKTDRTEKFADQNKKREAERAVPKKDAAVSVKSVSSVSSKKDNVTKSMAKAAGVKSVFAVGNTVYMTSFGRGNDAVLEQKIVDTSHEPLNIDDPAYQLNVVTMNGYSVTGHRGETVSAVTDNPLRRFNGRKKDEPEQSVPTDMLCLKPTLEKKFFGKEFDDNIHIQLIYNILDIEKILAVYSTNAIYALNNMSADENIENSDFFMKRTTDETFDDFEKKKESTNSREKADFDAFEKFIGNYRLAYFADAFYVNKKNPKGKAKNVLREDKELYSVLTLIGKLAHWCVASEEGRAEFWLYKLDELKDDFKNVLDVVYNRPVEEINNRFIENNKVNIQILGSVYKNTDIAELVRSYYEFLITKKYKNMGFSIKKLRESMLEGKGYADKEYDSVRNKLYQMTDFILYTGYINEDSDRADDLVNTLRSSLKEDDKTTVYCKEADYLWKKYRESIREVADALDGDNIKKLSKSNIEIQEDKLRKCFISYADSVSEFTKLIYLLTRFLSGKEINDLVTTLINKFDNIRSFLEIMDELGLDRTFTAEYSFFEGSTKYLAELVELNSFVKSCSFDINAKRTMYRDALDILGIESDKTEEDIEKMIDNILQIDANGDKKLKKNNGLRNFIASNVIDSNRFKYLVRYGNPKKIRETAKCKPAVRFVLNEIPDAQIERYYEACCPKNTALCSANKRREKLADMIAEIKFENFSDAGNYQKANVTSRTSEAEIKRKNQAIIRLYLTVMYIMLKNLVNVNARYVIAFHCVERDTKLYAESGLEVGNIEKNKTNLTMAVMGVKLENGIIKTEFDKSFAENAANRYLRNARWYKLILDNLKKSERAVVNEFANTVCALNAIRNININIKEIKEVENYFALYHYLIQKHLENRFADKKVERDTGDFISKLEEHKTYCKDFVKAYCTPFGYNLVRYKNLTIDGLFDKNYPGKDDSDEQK

B1: target 1 insG 3' of 1 (mixed)
RNA 1: CACCCGUGCAAAAAUGCAGGGGUCUAAAACUGAGCGGAUAACCUCUCUAUGG
RNA 2: GGGAAUGGAUCCACAUCUACGAAUUCGUACCAUAGAGAGGUUAUCCGCUCAGCCGAGAUCGGAAGAGCACACGU
B2: target 1 insA 3' of 4,insA 3' of 3 (mixed)
RNA 1: B1 RNA 1
RNA 2: GGGAAUGGAUCCACAUCUACGAAUUCGUACCAUAGAGAGGUUAUCCGCAUACACCGAGAUCGGAAGAGCACACGU
B3: target 1 insA 3' of 22,insG 3' of 9 (mixed)
RNA 1: B1 RNA 1
RNA 2: GGGAAUGGAUCCACAUCUACGAAUUCGUACACAUAGAGAGGUUAGUCCGCUCACCGAGAUCGGAAGAGCACACGU
B4: target 1 insA 3' of 13,insU 3' of 5 (mixed)
RNA 1: B1 RNA 1
RNA 2: GGGAAUGGAUCCACAUCUACGAAUUCGUACCAUAGAGAGAGUUAUCCGUCUCACCGAGAUCGGAAGAGCACACGU
B5: target 1 insA 3' of 19,insU 3' of 2 (mixed)
RNA 1: B1 RNA 1
RNA 2: GGGAAUGGAUCCACAUCUACGAAUUCGUACCAUAAGAGAGGUUAUCCGCUCUACCGAGAUCGGAAGAGCACACGU
B6: target 1 U11G,G17A (mixed)
RNA 1: B1 RNA 1
RNA 2: GGGAAUGGAUCCACAUCUACGAAUUCGUACCAUAAAGAGGGUAUCCGCUCACCGAGAUCGGAAGAGCACACGU
B7: target 1 C2A,A16G (mixed)
RNA 1: B1 RNA 1
RNA 2: B6 RNA 2 with A35G, A36G, G41U, C50A
B8: target 1 insA 3' of 22,insA 3' of 3 (mixed)
RNA 1: B1 RNA 1
RNA 2: B3 RNA 2 with G45U, U46C, C48G, G49C, C50U, U51A
B9: target 1 C7A,U19A (mixed)
RNA 1: B1 RNA 1
RNA 2: B6 RNA 2 with U33A, A35G, G41U, C45A
B10: target 1 insU 3' of 17,insU 3' of 17 (mixed)
RNA 1: B1 RNA 1
RNA 2: B4 RNA 2 with A36U, G37U, U42G, A44U, U45A, C46U, G48C, U49G
B11: target 1 insC 3' of 12,insC 3' of 10 (mixed)
RNA 1: B1 RNA 1
RNA 2: B4 RNA 2 with A40G, G41C, A44C, U45A, C46U, G48C, U49G
B12: target 1 U10C,A20U (mixed)
RNA 1: B1 RNA 1
RNA 2: B6 RNA 2 with A32U, A35G, G41U, U42C
B13: target 1 insC 3' of 22,insA 3' of 5 (mixed)
RNA 1: B1 RNA 1
RNA 2: B3 RNA 2 with A31C, G45U, U46C, C48G, G49A
B14: target 1 insA 3' of 13,insA 3' of 5 (mixed)
RNA 1: B1 RNA 1
RNA 2: B4 RNA 2 with U49A
B15: target 1 insU 3' of 18,insU 3' of 13 (mixed)
RNA 1: B1 RNA 1
RNA 2: B3 RNA 2 with A31C, C32A, A33U, U34A, A35U, G41U, U42G, A44U, G45A
B16: target 1 insG 3' of 11,insU 3' of 4 (mixed)
RNA 1: B1 RNA 1
RNA 2: B4 RNA 2 with A40G, G41U, U42G, U49C, C50U
B17: target 1 del4,del11 (mixed)
RNA 1: B1 RNA 1
RNA 2: GGGAAUGGAUCCACAUCUACGAAUUCGUACCAUAGAGAGGUAUCCGUCACCGAGAUCGGAAGAGCACACGU
B18: target 1 insG 3' of 14,insC 3' of 13 (mixed)
RNA 1: B1 RNA 1
RNA 2: B4 RNA 2 with A40G, G41C, U42G, A44U, U45A, C46U, G48C, U49G
B19: target 1 insC 3' of 12,insG 3' of 3 (mixed)
RNA 1: B1 RNA 1
RNA 2: B4 RNA 2 with A40G, G41C, U49C, C50U, U51G
B20: target 1 insU 3' of 20,insA 3' of 8 (mixed)
RNA 1: B1 RNA 1
RNA 2: B3 RNA 2 with A31C, C32A, A33U, G45U, U46A
B21: target 1 A16C,C22U (mixed)
RNA 1: B1 RNA 1
RNA 2: B6 RNA 2 with C30U, A35G, A36C, G41U
B22: target 1 A9G,G17A (mixed)
RNA 1: B1 RNA 1
RNA 2: B6 RNA 2 with G41U, A43G
B23: target 1 insC 3' of 8,insG 3' of 4 (mixed)
RNA 1: B1 RNA 1
RNA 2: B2 RNA 2 with G47C, C48G, A49C, U50G, A51U
B24: target 1 insU 3' of 6,insG 3' of 6 (mixed)
RNA 1: B1 RNA 1
RNA 2: B2 RNA 2 with G47U, C48G, A49G, U50C, A51U
B25: target 1 insA 3' of 6,insU 3' of 6 (mixed)
RNA 1: B1 RNA 1
RNA 2: B2 RNA 2 with G47A, C48U, A49G, U50C, A51U
B26: target 1 G17U,C22A (mixed)
RNA 1: B1 RNA 1
RNA 2: B6 RNA 2 with C30A, A35U, G41U
B27: target 1 C6A,G15C (mixed)
RNA 1: B1 RNA 1
RNA 2: B6 RNA 2 with A35G, G37C, G41U, C46A
B28: target 1 U11A,C22A (mixed)
RNA 1: B1 RNA 1
RNA 2: B6 RNA 2 with C30A, A35G, G41A
B29: target 1 insC 3' of 14,insA 3' of 5 (mixed)
RNA 1: B1 RNA 1
RNA 2: B4 RNA 2 with G39C, A40G, U49A
B30: target 1 G13A,A18C (mixed)
RNA 1: B1 RNA 1
RNA 2: B6 RNA 2 with A34C, A35G, G39A, G41U
B31: target 1 U11A,A20C (mixed)
RNA 1: B1 RNA 1
RNA 2: B6 RNA 2 with A32C, A35G, G41A
B32: target 1 C2G,C7U (mixed)
RNA 1: B1 RNA 1
RNA 2: B6 RNA 2 with A35G, G41U, C45U, C50G
B33: target 1 insC 3' of 9,insU 3' of 2 (mixed)
RNA 1: B1 RNA 1
RNA 2: B2 RNA 2 with U44C, C45U, G47C, C48G, A49C, A51C, C52U

Molecular target: T1, EsCas13d, nuclease-dead
Assay: crRNA (strand 1, pre-loaded); Mg2+; 40 mM Tris-HCl pH 7.5, 150 mM NaCl, 6 mM MgCl2, 1 mM DTT, 0.1% Tween-20, 0.2 mg/ml BSA; 25 C; 10 min per concentration, then washed
Details: tags: His6-TwinStrep-SUMO cleaved; N-terminal SNAP kept (SNAP-Surface 488); label: 3' end held by stalled T7 RNA polymerase

| Binder | Kd |
| --- | --- |
| B1 | 0.009 ± 0.0007 µM |
| B2 | 0.00701 ± 0.00033 µM |
| B3 | 0.0196 ± 0.001 µM |
| B4 | 0.00434 ± 0.00032 µM |
| B5 | 0.023 ± 0.002 µM |
| B6 | 0.074 ± 0.022 µM |
| B7 | 0.0285 ± 0.002 µM |
| B8 | 0.0111 ± 0.0006 µM |
| B9 | 0.048 ± 0.005 µM |
| B10 | 0.0277 ± 0.0032 µM |
| B11 | 0.0239 ± 0.0029 µM |
| B12 | 0.099 ± 0.014 µM |
| B13 | 0.019 ± 0.004 µM |
| B14 | 0.0034 ± 0.0005 µM |
| B15 | 0.038 ± 0.014 µM |
| B16 | 0.065 ± 0.015 µM |
| B17 | 0.1 ± 0.04 µM |

| Binder | Kd |
| --- | --- |
| B18 | 0.0137 ± 0.0009 µM |
| B19 | 0.0076 ± 0.0007 µM |
| B20 | 0.0253 ± 0.002 µM |
| B21 | 0.057 ± 0.012 µM |
| B22 | 0.057 ± 0.012 µM |
| B23 | 0.0128 ± 0.0008 µM |
| B24 | 0.0131 ± 0.0005 µM |
| B25 | 0.0289 ± 0.0014 µM |
| B26 | 0.0313 ± 0.003 µM |
| B27 | 0.056 ± 0.006 µM |
| B28 | 0.047 ± 0.006 µM |
| B29 | ~0.06 µM |
| B30 | 0.051 ± 0.008 µM |
| B31 | 0.08 ± 0.04 µM |
| B32 | 0.00382 ± 0.00029 µM |
| B33 | 0.0139 ± 0.0009 µM |
